In general, stoichiometry N refers to a count of units in the complex or per binding partner.

One substance from PMC8455029 can be followed below.

The target in assay [1] is AtFN3K C32A/C236A/C196A (Arabidopsis thaliana). Briefly: SEC. For orientation: SEC sorts molecules by how far they enter the pores of the column.
Assay [2] shares this target. Briefly: AUC.

For the substance AtFN3K C32A/C236A/C196A (enzyme), the stoichiometry N in assay [1] and in assay [2] was 2 in each case.
